Source: patent US20200270125A1 (OMEROS, published 2020)
Blank lines part the entries; values can stand above or below the binder they belong to.

What was measured:
[1] = target: T1, human MASP-3 CCP1-CCP2-SP fragment (human); assay: cell-based or functional assay
T1 chain: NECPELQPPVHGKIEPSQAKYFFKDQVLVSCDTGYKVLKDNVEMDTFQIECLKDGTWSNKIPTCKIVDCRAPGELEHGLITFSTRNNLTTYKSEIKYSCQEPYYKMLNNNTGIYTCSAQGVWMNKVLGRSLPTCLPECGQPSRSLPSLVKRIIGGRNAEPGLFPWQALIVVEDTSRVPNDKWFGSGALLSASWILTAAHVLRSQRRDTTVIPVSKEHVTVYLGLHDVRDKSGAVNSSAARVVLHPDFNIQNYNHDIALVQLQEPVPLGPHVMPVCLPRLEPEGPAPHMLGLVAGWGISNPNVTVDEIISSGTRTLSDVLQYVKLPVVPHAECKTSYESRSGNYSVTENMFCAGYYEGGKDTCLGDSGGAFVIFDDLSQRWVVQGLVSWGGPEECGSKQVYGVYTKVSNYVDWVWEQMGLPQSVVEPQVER

[2] = target: T2, human MASP-3 (construct not stated) (human); assay: cell-based or functional assay
T2 chain: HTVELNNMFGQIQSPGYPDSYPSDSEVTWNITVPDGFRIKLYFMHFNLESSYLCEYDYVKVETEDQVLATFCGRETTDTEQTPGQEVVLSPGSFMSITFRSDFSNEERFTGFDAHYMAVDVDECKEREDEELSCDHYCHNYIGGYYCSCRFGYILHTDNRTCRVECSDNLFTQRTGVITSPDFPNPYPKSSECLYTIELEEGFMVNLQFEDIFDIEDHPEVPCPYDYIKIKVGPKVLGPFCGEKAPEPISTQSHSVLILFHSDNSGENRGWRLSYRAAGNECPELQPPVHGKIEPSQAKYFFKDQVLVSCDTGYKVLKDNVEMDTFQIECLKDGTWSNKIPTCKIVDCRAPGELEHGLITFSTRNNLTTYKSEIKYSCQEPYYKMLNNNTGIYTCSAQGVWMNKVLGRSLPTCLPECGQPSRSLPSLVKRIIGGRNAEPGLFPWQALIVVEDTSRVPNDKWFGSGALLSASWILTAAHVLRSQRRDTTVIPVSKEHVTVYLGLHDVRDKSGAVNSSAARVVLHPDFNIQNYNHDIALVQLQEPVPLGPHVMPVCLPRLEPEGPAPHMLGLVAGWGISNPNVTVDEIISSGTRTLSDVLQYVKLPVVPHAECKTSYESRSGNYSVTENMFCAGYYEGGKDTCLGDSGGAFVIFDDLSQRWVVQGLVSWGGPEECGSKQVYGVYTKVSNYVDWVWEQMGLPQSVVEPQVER

[3] = target: T2, human MASP-3 (construct not stated); assay: cell-based or functional assay
[4] = target: T2, human MASP-3 (construct not stated); assay: not described at this place
[5] = target: T1, human MASP-3 CCP1-CCP2-SP fragment; assay: sandwich ELISA, MASP-3 CCP1-CCP2-SP captured by αM3-259
Summary of the method: (§1)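 Candidate MASP-3 antibodies incubated 1 h at room temperature on the prepared plate, then detected with mouse anti-human kappa-HRP for 1 h. Developed 5 min with TMB; absorbance read at 450 nm.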

[6] = target: T3, recombinant full-length mouse MASP-3 (mouse); assay: sandwich ELISA, full-length mouse MASP-3 captured by αM3-259
T3 construct: Entry is with leader; also called mouse full length MASP-3
T3 chain: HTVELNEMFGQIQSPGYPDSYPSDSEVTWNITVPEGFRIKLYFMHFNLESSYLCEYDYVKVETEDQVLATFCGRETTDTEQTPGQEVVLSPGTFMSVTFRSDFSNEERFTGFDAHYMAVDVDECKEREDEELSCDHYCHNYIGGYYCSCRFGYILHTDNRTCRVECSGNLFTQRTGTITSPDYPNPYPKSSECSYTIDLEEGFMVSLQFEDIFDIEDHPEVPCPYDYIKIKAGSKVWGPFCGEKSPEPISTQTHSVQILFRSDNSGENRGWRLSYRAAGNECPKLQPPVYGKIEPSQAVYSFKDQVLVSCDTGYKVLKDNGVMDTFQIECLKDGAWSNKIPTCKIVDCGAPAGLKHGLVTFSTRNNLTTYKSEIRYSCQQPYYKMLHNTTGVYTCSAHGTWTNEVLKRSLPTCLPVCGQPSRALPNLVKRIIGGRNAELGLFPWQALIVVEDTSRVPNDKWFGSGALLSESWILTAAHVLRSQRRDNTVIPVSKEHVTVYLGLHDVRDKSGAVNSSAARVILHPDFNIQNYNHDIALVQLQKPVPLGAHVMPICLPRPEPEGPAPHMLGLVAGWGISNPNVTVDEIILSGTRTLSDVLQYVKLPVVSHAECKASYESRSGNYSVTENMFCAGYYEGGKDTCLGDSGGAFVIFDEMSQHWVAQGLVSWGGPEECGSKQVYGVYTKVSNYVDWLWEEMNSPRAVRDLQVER
Summary of the method: as §1

[7] = target: T4, recombinant human MASP-2 (CCP1-CCP2-SP fragment) (human, UniProt O00187 298-686, limits assumed); assay: ELISA: recombinant MASP-2 (CCP1-CCP2-SP) coated directly on the plate, A450
T4 construct: domain: CCP1-CCP2-SP fragment
T4 sequence (O00187 298-686 limits assumed): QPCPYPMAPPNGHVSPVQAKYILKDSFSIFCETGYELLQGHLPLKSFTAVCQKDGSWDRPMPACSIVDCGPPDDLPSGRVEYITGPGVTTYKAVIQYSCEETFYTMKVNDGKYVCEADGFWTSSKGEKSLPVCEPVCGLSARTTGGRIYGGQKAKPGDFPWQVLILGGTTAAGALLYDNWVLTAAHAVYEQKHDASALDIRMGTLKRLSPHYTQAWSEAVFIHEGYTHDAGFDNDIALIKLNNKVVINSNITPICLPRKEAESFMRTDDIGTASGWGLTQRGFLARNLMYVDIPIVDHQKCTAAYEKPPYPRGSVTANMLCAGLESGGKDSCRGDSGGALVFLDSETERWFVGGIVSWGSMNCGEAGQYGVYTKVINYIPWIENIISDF
Summary of the method: as §1

[8] = target: T5, recombinant human MASP-1A (S646A, CCP1-CCP2-SP fragment) (human, UniProt P48740 298-699, limits assumed); assay: ELISA: recombinant MASP-1A (S646A, CCP1-CCP2-SP) coated directly on the plate, A450
T5 chain: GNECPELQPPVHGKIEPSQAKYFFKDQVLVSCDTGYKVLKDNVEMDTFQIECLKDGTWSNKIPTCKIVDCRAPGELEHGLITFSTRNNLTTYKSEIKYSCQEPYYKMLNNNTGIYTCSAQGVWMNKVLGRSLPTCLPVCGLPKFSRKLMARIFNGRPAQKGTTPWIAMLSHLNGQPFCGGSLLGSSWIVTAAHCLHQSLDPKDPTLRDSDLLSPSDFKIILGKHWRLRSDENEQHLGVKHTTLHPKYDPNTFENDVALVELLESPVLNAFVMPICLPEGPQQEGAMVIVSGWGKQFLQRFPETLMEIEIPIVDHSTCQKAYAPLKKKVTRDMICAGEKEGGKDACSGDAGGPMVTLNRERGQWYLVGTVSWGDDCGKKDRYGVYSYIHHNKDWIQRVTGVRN
Summary of the method: as §1

[9] = target: T1, human MASP-3 CCP1-CCP2-SP fragment; assay: sandwich ELISA: human MASP-3 CCP1-CCP2-SP captured on aM3-259, mAb detected with anti-human kappa-HRP, A450
Method: The plate was then washed (PBS-T, 0.05%) and the candidate MASP-3 antibodies were added followed by incubation for one hour at room temperature. The plate was washed (PBS-T, 0.05%) and a detection antibody was added (mouse anti-human kappa-HRP, SouthernBiotech #9230-05) for one hour at room temperature. After another wash (PBS-T, 0.05%) the plate was developed (5 minutes) with OPT EIA TMB (BD Biosciences #555214). Absorbance reading at A450 was measured using the Spectramax M5e plate reader.

[10] = target: T2, human MASP-3 (construct not stated); assay: ELISA, monovalent Fab
[11] = target: T2, human MASP-3 (construct not stated); assay: cross-species binding experiments
[12] = target: T6, recombinant full-length human MASP-3 (human); assay: ELISA, full-length human MASP-3 held by a capture antibody, monovalent Fab, anti-kappa-HRP
T6 construct: Recombinant, full-length; also called full-length human MASP-3 protein; rMASP-3 (full-length)
T6 chain: T2 chain
From the text: (§2) Binding affinity determinations were made by coating 96-well plates with an anti-MASP-3 capture antibody that binds the protein from multiple species.

[13] = target: T3, recombinant full-length mouse MASP-3; assay: ELISA, full-length mouse MASP-3 held by a capture antibody, monovalent Fab, anti-kappa-HRP
From the text: as §2

inhibition of MASP-3-dependent fluorogenic tripeptide (BOC-V-P-R-AMC) cleavage [1]: 30.1 nM | IC50, factor Bb deposition on zymosan in 10% CFD-depleted human serum with pro-CFD (flow cytometry) [2]: 0.311 nM | Inhibition of Factor Bb Deposition on Zymosan (IC50 nM), 10% factor D-depleted human serum with pro-factor D [3]: 0.3 nM | binding affinity [4]: ≤ 500 pM | EC50 [5]: 0.059 nM | EC50 [6]: 0.035 nM | EC50 [9]: 0.089 nM
B1: MASP-3 mAb 13B1 (mouse-human chimeric IgG4) (antibody, V domains shown)
VH: QVQLKQSGAELMKPGASVKLSCKATGYTFTGKWIEWVKQRPGHGLEWIGEILPGTGSTNYNEKFKGKATFTADSSSNTAYMQLSSLTTEDSAMYYCLRSEDVWGTGTTVTVSS
VL: DIVMTQSPSSLAVSAGEKVTMSCKSSQSLLNSRTRKNYLAWYQQKPGQSPKLLIYWASTRESGVPDRFTGSGSGTDFTLTISSVQAEDLAVYYCKQSYNIPTFGGGTKLEIKR
notes: also called mAb M3-1; M3-1
binding result [7]: no binding (tested: about 20 nM (log10 about 1.3)) | binding result [8]: no binding (tested: about 20 nM (log10 about 1.3))

EC50 [10]: 0.123 nM | avidity [11]: < 500 pM | EC50 [12]: ~0.117 nM | EC50 [13]: ~0.214 nM
B2: 13B1 Parental Fab (Fab, V domains shown)
VH: B1 VH
VL: B1 VL
notes: Monovalent Fab; also called M3-1 Fab; 13B1 Fab
